In patent publication US20140120109A1 (Regeneron, published 2014):

T1: human DR3, full-length, expressed on HEK293 NFkB-luciferase reporter cells (human, UniProt Q93038 25-417)
T1 sequence: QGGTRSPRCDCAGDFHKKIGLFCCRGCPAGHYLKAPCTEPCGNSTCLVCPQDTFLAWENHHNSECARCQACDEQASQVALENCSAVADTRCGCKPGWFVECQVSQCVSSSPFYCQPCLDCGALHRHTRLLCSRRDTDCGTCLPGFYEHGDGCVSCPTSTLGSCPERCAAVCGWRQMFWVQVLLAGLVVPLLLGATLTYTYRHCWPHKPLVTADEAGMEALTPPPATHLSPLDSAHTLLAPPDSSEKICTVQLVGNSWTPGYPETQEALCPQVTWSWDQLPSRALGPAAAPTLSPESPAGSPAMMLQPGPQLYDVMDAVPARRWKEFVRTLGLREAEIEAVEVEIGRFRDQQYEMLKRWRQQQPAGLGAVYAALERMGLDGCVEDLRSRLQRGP

T2: Fhm, hTL1A(Q167R), soluble, E. coli-expressed, residues 72-251 of SEQ ID NO:246 (human, UniProt O95150 72-251)
T2 construct: with or without N-terminal Met
T2 chain: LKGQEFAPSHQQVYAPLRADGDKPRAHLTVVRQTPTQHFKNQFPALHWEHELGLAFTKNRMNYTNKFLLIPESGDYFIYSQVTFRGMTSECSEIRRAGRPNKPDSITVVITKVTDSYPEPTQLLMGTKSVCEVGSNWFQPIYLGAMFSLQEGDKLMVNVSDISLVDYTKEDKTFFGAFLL

B1: cynomolgus monkey TL1A, soluble, E. coli-expressed, residues 72-251 of SEQ ID NO:248 (ligand)
chain: LKGQEFAPSHQQVYAPLRADGDKPRAHLTVVRQTPTQHLKNQFPALHWEHELGLAFTKNRMNYTNKFLLIPESGDYFVYSQVTFRGMTSECSEIRQAGRPNKPDSITVVITKVTDSYPEPTQLLMGTKSVCEVGSNWFQPIYLGAMFSLQEGDKLMVNVSDISLVDYTKEDKTFFGAFLL
B2: mouse TL1A, soluble, E. coli-expressed, residues 76-252 of SEQ ID NO:250 (ligand)
chain: ITEERSEPSPQQVYSPPRGKPRAHLTIKKQTPAPHLKNQLSALHWEHDLGMAFTKNGMKYINKSLVIPESGDYFIYSQITFRGTTSVCGDISRGRRPNKPDSITMVITKVADSYPEPARLLTGSKSVCEISNNWFQSLYLGATFSLEEGDRLMVNVSDISLVDYTKEDKTFFGAFLL

Key:
[1] = target: T1, human DR3, full-length, expressed on …; test: cell-based or functional assay
[2] = target: T2, Fhm, hTL1A(Q167R), soluble, E. …; test: SPR 25C, mAb captured
Method: (§1) Measurements were conducted on a T100 BIACORE™ instrument. […] Kinetic association (kₐ) and dissociation (kd) rate constants were determined by fitting the data to a 1:1 binding model using BIAevaluation 4.1 curve fitting software (BIAcore Life Sciences). Molar concentrations of TL1A/Fhm used in the data fitting assumed a monomeric state for TL1A in solution. Binding dissociation equilibrium constants (KD) and dissociative half-lives (t_{1/2}) were calculated from the kinetic rate constants as: KD (M)=kd/kₐ; and t_{1/2} (min)=[In2/(60*kd)].

[3] = target: B1; test: SPR 25C, mAb captured
Method: as §1

[4] = target: B2; test: SPR 25C, steady state
Method: as §1, with “Binding dissociation equilibrium constants (KD) and dissociative half-lives (t_{1/2}) were calculated from the kinetic rate constants as: KD (M)=kd/kₐ; and t_{1/2} (min)=[In2/(60*kd)].” left out

[5] = target: B1; test: SPR 37C, mAb captured
Method: as §1

Binder	EC50, NFkB-luciferase reporter [1]	also measured
human TL1A, soluble, CHO-expressed, residues 72-251 of SEQ ID NO:244 with N-terminal His6-tag (ligand) HHHHHHLKGQEFAPSHQQVYAPLRADGDKPRAHLTVVRQTPTQHFKNQFPALHWEHELGLAFTKNRMNYTNKFLLIPESGDYFIYSQVTFRGMTSECSEIRQAGRPNKPDSITVVITKVTDSYPEPTQLLMGTKSVCEVGSNWFQPIYLGAMFSLQEGDKLMVNVSDISLVDYTKEDKTFFGAFLL	630 pM	–
Fhm, hTL1A(Q167R), soluble, CHO-expressed, residues 72-251 of SEQ ID NO:246 (ligand) HHHHHHLKGQEFAPSHQQVYAPLRADGDKPRAHLTVVRQTPTQHFKNQFPALHWEHELGLAFTKNRMNYTNKFLLIPESGDYFIYSQVTFRGMTSECSEIRRAGRPNKPDSITVVITKVTDSYPEPTQLLMGTKSVCEVGSNWFQPIYLGAMFSLQEGDKLMVNVSDISLVDYTKEDKTFFGAFLL	320 pM	–
cynomolgus monkey TL1A, soluble, CHO-expressed, residues 72-251 of SEQ ID NO:248 with N-terminal His6-tag (ligand) HHHHHHLKGQEFAPSHQQVYAPLRADGDKPRAHLTVVRQTPTQHLKNQFPALHWEHELGLAFTKNRMNYTNKFLLIPESGDYFVYSQVTFRGMTSECSEIRQAGRPNKPDSITVVITKVTDSYPEPTQLLMGTKSVCEVGSNWFQPIYLGAMFSLQEGDKLMVNVSDISLVDYTKEDKTFFGAFLL	860 pM	–
human TL1A, soluble, E. coli-expressed, residues 72-251 of SEQ ID NO:244 (ligand) LKGQEFAPSHQQVYAPLRADGDKPRAHLTVVRQTPTQHFKNQFPALHWEHELGLAFTKNRMNYTNKFLLIPESGDYFIYSQVTFRGMTSECSEIRQAGRPNKPDSITVVITKVTDSYPEPTQLLMGTKSVCEVGSNWFQPIYLGAMFSLQEGDKLMVNVSDISLVDYTKEDKTFFGAFLL	120 pM	–
B1	2020 pM	–
mouse TL1A, soluble, CHO-expressed, residues 76-252 of SEQ ID NO:250 with N-terminal His6-tag (ligand) HHHHHHITEERSEPSPQQVYSPPRGKPRAHLTIKKQTPAPHLKNQLSALHWEHDLGMAFTKNGMKYINKSLVIPESGDYFIYSQITFRGTTSVCGDISRGRRPNKPDSITMVITKVADSYPEPARLLTGSKSVCEISNNWFQSLYLGATFSLEEGDRLMVNVSDISLVDYTKEDKTFFGAFLL	80 pM	–
B2	10 pM	–
rat TL1A, soluble, CHO-expressed, residues 76-252 of SEQ ID NO:258 with N-terminal His6-tag (ligand) HHHHHHVTEERSAPSAQPVYTPSRDKPKAHLTIMRQTPVPHLKNELAALHWENNLGMAFTKNRMNYTNKFLVIPESGDYFIYSQITFRGTTSECGDISRVRRPKKPDSITVVITKVADSYPEPAHLLTGTKSVCEISSNWFQPIYLGAMFSLEEGDRLMVNVSDISLVDYTKEDKTFFGAFLI	60 pM	–
H2M1704N (antibody, V domains shown, chimeric hybridoma antibody: human variable regions, mouse constant regions (mouse Fc)) VH: EVQLVESGGGLVQPGGSLRLSCAVSGFTFSSYWMSWVRQAPGKGLEWVANIKEDGSEKNYVDSVKGRFTLSSDNAKNSLYLQMNSLRAEDTAVYYCAREDYDSYYKYGMDVWGQGTAVIVSS VL: not shown	–	Kd [2]: 282 pM; t1/2 [2]: 52 min; Kd [3]: 285 pM; t1/2 [3]: 57 min; Kd [4]: 127000 pM; Kd [5]: 751 pM; t1/2 [5]: 16 min
